# Measurements: patent publication US20260055143A1, “HIGH AFFINITY VARIANTS OF SH2 DOMAINS” (Axoiya Inc., priority 2023, published 2026)
# Changes are numbered by the printed parent chain.
# B1: sFes^4, superbinder Fes SH2 domain variant (designed binder)
# chain: MKIEEHHHHHHSSGKLGLNDIFEAQKIEWHESSGEDLYFQSGTTMDDYKDDDDKGGSEVQKPLHEQLWYHGAIPRAEVAELLVHSGDFLVRESQGRKVYVLSVLWDGLPRHFIIQSLDNLYRLEGEGFPSIPLLIDHLLSTQQPLTKKSGVVLHRAVPSR
# B2: sFes^1 (SuperFes), superbinder Fes SH2 domain variant (designed binder)
# chain: B1 chain with S93G, G95S, R96Q, K97P, V98D
# B3: sFes^5, superbinder Fes SH2 domain variant (designed binder)
# chain: B1 chain with Q94I, G95S, R96K, K97Q, V98G, I113L
# B4: sFes^6, superbinder Fes SH2 domain variant (designed binder)
# chain: B1 chain with L89I, G95T, R96Y, K97P, V98G
# B5: sFes^3, superbinder Fes SH2 domain variant (designed binder)
# chain: B1 chain with Q94P, G95R, R96I, K97Q, V98E
# B6: sFes^2, superbinder Fes SH2 domain variant (designed binder)
# chain: B1 chain with S93R, G95R, R96K, K97Q, V98E
# Target: pTyr-containing peptide (pEZ) derived from Ezrin, PPV{pTyr}EPVS
# Experiment: fluorescence polarization; fold change over wt Fes SH2
row,Fold Change,Binder
1,77 fold,B1
2,493 fold,B2
3,33.8 fold,B3
4,28 fold,B4
5,95.9 fold,B5
6,344 fold,B6

# Target: pTyr-containing peptide (pEZ) derived from Ezrin, PPV{pTyr}EPVS
# Experiment: phage ELISA, phage-displayed clone on immobilized peptide
row,binding signal for pEZ over that for the unphosphorylated peptide EZ,Binder
1,10 fold,B1
2,10 fold,B2
3,10 fold,B3
4,10 fold,B4
5,10 fold,B5
6,10 fold,B6

# Target: pTyr-containing peptide (pEZ) derived from Ezrin, PPV{pTyr}EPVS
# Experiment: fluorescence polarization, purified SH2 domain with fluorescein-labelled ezrin phosphopeptide
row,IC50,Binder
1,17.4 nM,B1
2,2.7 nM,B2
3,39.7 nM,B3
4,48 nM,B4
5,14 nM,B5
6,3.9 nM,B6
